Source: patent publication US20170174769A1 (Regeneron, published 2017)

Columns and labels:
[1] = target: T1, full-length human FGFR1c on HEK293/hFGFR1c/SRE-luc cells (human, UniProt P11362 22-822); test: FACS on stable HEK293 cells, 33 nM
T1 construct: amino acids 1-733 of NP_075593
Procedure: (§1) For the FACS analysis, HEK293 parental, HEK293/hFGFR1c, HEK293/hFGFR1c/hKLB, and HEK293/mFGFR1c/mKLB cells were dissociated and plated onto 96-well v-bottom plates at 0.5×10⁶ cells/well in 2% FBS/PBS. […] Control mAb2 was tested at a concentration of 965 nM. After primary protein incubation cells were washed and incubated with 3.75 μg/mL fluorescently conjugated secondary antibodies for 30 minutes at 4° C. Cells were filtered and analyzed on Accuri™ 6 Flow Cytometer. Unstained and secondary antibody alone controls were also tested for all cell lines. The results were analyzed using FlowJo version 9.52 software and geometric mean (Geom. Mean) of fluorescence for viable cells were determined. Geom. mean of fluorescence for each antibody was then normalized to Geom. mean of unstained cells to obtain relative binding of antibody (binding ratios) per each cell type.

[2] = target: T2, human KLB and human FGFR1c co-expressed on HEK293/hKLB/hFGFR1c/SRE-luc cells (human, UniProt Q86Z14 1-1044; P11362 22-822); test: FACS on stable HEK293 cells, 33 nM
T2 construct: two receptors co-expressed on one cell line; also called KLB/FGFR1c coreceptor; FGF21R
T2 sequence (Q86Z14 whole entry, chain 1 of 2): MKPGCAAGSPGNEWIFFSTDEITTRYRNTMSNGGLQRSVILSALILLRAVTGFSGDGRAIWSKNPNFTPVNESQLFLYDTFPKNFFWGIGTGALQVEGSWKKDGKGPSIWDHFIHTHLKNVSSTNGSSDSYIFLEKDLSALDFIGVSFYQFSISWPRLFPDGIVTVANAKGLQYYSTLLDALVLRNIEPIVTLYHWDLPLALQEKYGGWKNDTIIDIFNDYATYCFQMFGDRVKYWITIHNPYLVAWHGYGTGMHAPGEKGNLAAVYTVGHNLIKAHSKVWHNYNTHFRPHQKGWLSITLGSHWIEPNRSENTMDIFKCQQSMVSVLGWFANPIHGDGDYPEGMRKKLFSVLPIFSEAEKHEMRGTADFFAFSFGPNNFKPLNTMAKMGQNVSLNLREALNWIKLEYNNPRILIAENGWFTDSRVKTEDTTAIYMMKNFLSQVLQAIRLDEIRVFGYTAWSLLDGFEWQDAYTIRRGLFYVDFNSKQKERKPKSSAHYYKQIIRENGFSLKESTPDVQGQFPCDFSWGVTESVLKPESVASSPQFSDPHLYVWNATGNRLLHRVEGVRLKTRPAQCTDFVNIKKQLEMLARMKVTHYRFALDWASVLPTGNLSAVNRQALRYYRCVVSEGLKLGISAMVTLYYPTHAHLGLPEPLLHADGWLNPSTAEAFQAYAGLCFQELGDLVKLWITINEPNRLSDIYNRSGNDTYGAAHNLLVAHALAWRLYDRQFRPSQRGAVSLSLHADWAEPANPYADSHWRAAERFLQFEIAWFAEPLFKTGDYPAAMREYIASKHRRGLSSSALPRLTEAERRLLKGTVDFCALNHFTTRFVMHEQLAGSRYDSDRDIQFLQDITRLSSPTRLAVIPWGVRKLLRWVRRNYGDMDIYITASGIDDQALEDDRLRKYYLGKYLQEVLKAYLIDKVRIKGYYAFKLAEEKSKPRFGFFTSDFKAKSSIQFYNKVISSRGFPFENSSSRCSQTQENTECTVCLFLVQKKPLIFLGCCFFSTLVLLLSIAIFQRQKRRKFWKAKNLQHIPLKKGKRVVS
T2 sequence (P11362 other isoform, or with tags, fused parts or gaps limits assumed, chain 2 of 2): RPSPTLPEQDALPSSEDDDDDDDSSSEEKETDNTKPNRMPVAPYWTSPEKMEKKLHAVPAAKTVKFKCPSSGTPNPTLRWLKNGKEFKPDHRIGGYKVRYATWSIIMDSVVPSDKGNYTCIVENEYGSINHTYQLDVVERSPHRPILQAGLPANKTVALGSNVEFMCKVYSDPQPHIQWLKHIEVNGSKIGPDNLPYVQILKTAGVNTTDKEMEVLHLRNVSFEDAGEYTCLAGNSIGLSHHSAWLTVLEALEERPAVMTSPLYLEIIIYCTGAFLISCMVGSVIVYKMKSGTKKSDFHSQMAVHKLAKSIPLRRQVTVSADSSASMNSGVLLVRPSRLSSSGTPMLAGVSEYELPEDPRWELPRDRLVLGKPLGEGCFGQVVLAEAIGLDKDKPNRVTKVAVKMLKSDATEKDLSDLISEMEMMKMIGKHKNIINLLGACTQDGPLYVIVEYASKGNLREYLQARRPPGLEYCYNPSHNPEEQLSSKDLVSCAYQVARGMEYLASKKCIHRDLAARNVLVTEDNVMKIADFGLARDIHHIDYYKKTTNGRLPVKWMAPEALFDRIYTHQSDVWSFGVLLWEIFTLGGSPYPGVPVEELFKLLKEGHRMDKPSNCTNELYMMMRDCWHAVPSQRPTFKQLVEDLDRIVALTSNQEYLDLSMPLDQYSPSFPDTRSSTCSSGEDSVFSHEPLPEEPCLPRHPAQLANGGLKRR
Procedure: as §1

[3] = target: T1, full-length human FGFR1c on …; test: FACS on stable HEK293 cells, 965 nM
Procedure: as §1

T1 sequence (P11362 other isoform, or with tags, fused parts or gaps limits assumed): as the sequence (P11362 other isoform, or with tags, fused parts or gaps limits assumed, chain 2 of 2) above

MFI Ratio to unstained cells [1]: 2 fold
MFI Ratio to unstained cells [2]: 2 fold
MFI Ratio to unstained cells [3]: 5 fold
B1: H1H8900P (antibody, V domains shown)
VH: QVQLVESGGGVVQPGRSLRLSCVASGFTFSSYGMHWVRQAPGKGLEWVAVISFDGSNKYYADSVKGRFTISRDNSKNTLYLQMNSLRPADTAVYYCAKDRSNYYYFGMDVWGQGTTVTVSS
VL: DIVMTQTPLSLPVTPGEPASISCRSSQSLLDSDDGNTYLDWYLQKPGQSPQLLIYTLSYRASGVPDRFSGSGSGTDFTLKISRVEAEDVGVYYCMQRIEFPLTFGGGTKVEIK
notes: H1H Fc prefix (human Fc)
